Data as given in patent US8507245B2, “Site-directed pegylation of arginases and the use thereof as anti-cancer and anti-viral agents” (priority 2009, dated 2013).
Read-outs that look alike come from different tables or passages of the source.

Assays:
[1] = tested on: HCT-15 human colorectal cancer cells; assay type: in vivo, BALB/c nude mice
Experimental: Athymic nude BALB/c mice (age of 6-8 weeks) were housed under sterile conditions with 12 hour light-dark cycle and provided with autoclaved feed ad libitum. The mice were acclimated for at least 1 week before the start of experiments. Each nude mouse was implanted with ˜3 mm^3 of in vivo maintained HCT-15 human colorectal cancer cells to the right axilla subcutaneously. When stable palpable tumours of ˜5 mm diameter were developed, the mice were randomly separated into five different groups (Table 6). Intraperitoneal administrations of arginase drugs or control vehicle (PBS) were given twice per week while 5-fluorouracil was given once per week starting from Day 0. Tumour dimensions (L: longest diameter and W: its perpendicular diameter) and body weights were measured on every Mondays, Wednesdays and Fridays with Vernier caliper. Tumour volume was calculated with the formula (½×L×W^2) and no. of fold increase in tumour volume (relative tumour volume) was calculated with reference to Day-0. The results were plotted against time. The mice were euthanized at the end of experiment or when tumour diameter reached 2.5 cm.

[2] = tested on: blood arginine; experiment: Pharmacodynamics: depletion of arginine in BALB/c normal mice; assay type: in vivo; conditions: plasma, single i.p. dose
Experimental: Pharmacodynamics of Cys^45 pegylated human arginase I and Cys^161 pegylated Bacillus caldovelox arginase were studied using BALB/c normal mice. The study was carried out in conjunction with the pharmacokinetic study (described below). Therefore, the protocol remained the same. Again, the blood samples collected was centrifuged immediately at 13,200 rpm for 5 minutes and the plasma layer were collected for further analysis using the Amino Acid Analyzer (Biochrom 30, Biochrom Ltd., England).

[3] = tested on: hepatocellular carcinoma Hep3B cells; assay type: in vivo, BALB/c nude mice; conditions: for effect on tumour growth (tumour volume) vs PBS control: 500 Units/mouse i.p. weekly for 8 weeks, HAI-PEG20 effect from Day 47 (p<0.01); for average body weight: mouse, in vivo, ip
Experimental: A number of BALB/c nude mice were injected with hepatocellular carcinoma Hep3B cells intraperitoneally (i.p.) and maintained in vivo. Then each of the 30 BALB/c nude mice was injected with ˜1×10^6 of the in vivo maintained cancer cells to the right axilla subcutaneously. When palpable tumours of 5 mm diameter were developed, the mice were separated into three different groups (see Table 3). Drugs or PBS buffer were administered intraperitoneally weekly starting on day 0 for 8 weeks. Body weights and tumour dimensions (L: length of the longer diameter and W: length of the shorter diameter of the tumour) were measured twice a week. Tumour volume (½×L×W^2) was calculated and plotted against time. After 60 days or when tumour diameter reached 2.5 cm, the mice were euthanized. Survival rates of the mice were recorded at the end of the study.

[4] = tested on: HIV-1 strain RF; experiment: HIV replication (virus inhibition) assay in H9 cells
[5] = Steady-state kinetics of human arginase I with Mn2+ or Co2+ (DAMO assay); assay type: biochemical; conditions: for Km: sodium phosphate buffer pH 7.4, 25° C.
Experimental: Diacetylmonoxine (DAMO) assay was used to determine the kinetic parameters of human arginase with different metal cofactors. All enzymatic reactions were carried out at pH 7.4.

[6] = sodium phosphate buffer pH 7.4, 25° C.
Experimental: Either Bacillus caldovelox arginase (BCA) or the human arginase I (HAI) was expressed as described previously. The purification method was the same as described before except 10 mM of metal ion (CoSO4 or MnSO4) was added into the purified protein elution from Nickel affinity chromatography instead of added before Nickel affinity chromatography. Eluted factions containing the arginase enzyme were incubated with 10 mM metal for 15 min at 50˜55° C., followed by filtration through a 0.45 μm syringe filter. Then the solution was exchanged with storage buffer by ultrafiltration.
The mutant genes were cloned, expressed and purified for detailed studies.

[7] = tested on: MDA-MB-231; experiment: Cell proliferation assay (MTT, Table 11); assay type: cell-based; conditions: MDA-MB-231 breast, 3 days
[8] = tested on: 4T1; experiment: Cell proliferation assay (MTT, Table 11); assay type: cell-based, mouse; conditions: 4T1 breast, 3 days
Experimental: 1×10^5 cells of a mouse metastatic breast cancer cell line (4T1) were injected orthotopically into the No. 4 inguinal mammary fat pad of wild-type BALB/c mice at the age of 6-8 weeks. When the tumors reached an average of 5 mm, the mice were divided into two different treatment groups (Table 7). BCA-PEG20 (250 U/mouse) or control vehicle (PBS) were injected intraperitoneally twice per week starting from Day 0. Body weight was measured every week. After three weeks, the mice were sacrificed and analyzed for the lung metastasis. The number of lung metastases was counted under a dissecting microscope after rinsing with PBS.
Cell Proliferation Assay: For each cancer cell line, cells (5×10^3) in 100 μL culture medium were seeded to the wells of a 96-well plate and incubated for 24 hours by standard method.

## O=c1[nH]cc(F)c(=O)[nH]1 [5-fluorouracil]
[1]; arginases i.p. twice per week (BCA 500, BCA-PEG20 250 Units/mouse), 5-fluorouracil 10 mg/kg once per week
  effect on tumour growth vs control: did not show significant tumour suppression
[1]; mouse, in vivo
  average body weight, last recorded: 24.5 ± 1.4 g

B1: HAI-PEG20: Cys^45-specific mono-pegylated 6xHis-tagged human arginase I mutant (C168S/C303S) with single chain mPEG-maleimide (20 kDa) (conjugate, UniProt P05089 1-322, looked up, variant C168S C303S)
Arginase-1: MSAKSRTIGIIGAPFSKGQPRGGVEEGPTVLRKAGLLEKLKEQECDVKDYGDLPFADIPNDSPFQIVKNPRSVGKASEQLAGKVAEVKKNGRISLVLGGDHSLAIGSISGHARVHPDLGVIWVDAHTDINTPLTTTSGNLHGQPVSFLLKELKGKIPDVPGFSWVTPSISAKDIVYIGLRDVDPGEHYILKTLGIKYFSMTEVDRLGIGKVMEETLSYLLGRKKRPIHLSFDVDGLDPSFTPATGTPVVGGLTYREGLYITEEIYKTGLLSGLDIMEVNPSLGKTPEEVTRTVNTAVAITLASFGLAREGNHKPIDYLNPPK
modifications: 20 kDa mPEG-maleimide at Cys45; 6xHis tag
[2]
  time at which arginine started to appear after arginase administration: 6.8 ± 2.3 days
[2]; starting from 6 hr (Day 0)
  arginine depletion: totally depleted
[2]; stayed at high level up to Day 3
  ornithine level: > 150 µM
[3]
  effect on tumour growth (tumour volume) vs PBS control: significantly reduced the rate of tumour growth
  average body weight: 25.0 ± 0.2 g
[4]; 1 U/mL
  wells displaying cytopathic effect (positive wells/wells inoculated): 8/8
[4]; 10 U/mL
  wells displaying cytopathic effect (positive wells/wells inoculated): 6/8
[4]; 50 U/mL
  wells displaying cytopathic effect (positive wells/wells inoculated): 3/8
[4]; H9 cells, five days post infection, cytopathic effect
  IC50 on HIV: approximately 37 U/mL

B2: HAI Mn^2+: recombinant human arginase I with Mn^2+ as metal cofactor (protein, UniProt P05089 1-322, looked up)
Arginase-1: MSAKSRTIGIIGAPFSKGQPRGGVEEGPTVLRKAGLLEKLKEQECDVKDYGDLPFADIPNDSPFQIVKNPRSVGKASEQLAGKVAEVKKNGRISLVLGGDHSLAIGSISGHARVHPDLGVIWVDAHTDINTPLTTTSGNLHGQPVSFLLKELKGKIPDVPGFSWVTPCISAKDIVYIGLRDVDPGEHYILKTLGIKYFSMTEVDRLGIGKVMEETLSYLLGRKKRPIHLSFDVDGLDPSFTPATGTPVVGGLTYREGLYITEEIYKTGLLSGLDIMEVNPSLGKTPEEVTRTVNTAVAITLACFGLAREGNHKPIDYLNPPK
modifications: Mn2+ cofactor
notes: recombinant human arginase I with Mn^2+ as metal cofactor
[5]
  Km: 1830 µM

B3: HAI Co^2+: recombinant human arginase I with cobalt replacing manganese as metal cofactor (protein, UniProt P05089 1-322, looked up)
Arginase-1: MSAKSRTIGIIGAPFSKGQPRGGVEEGPTVLRKAGLLEKLKEQECDVKDYGDLPFADIPNDSPFQIVKNPRSVGKASEQLAGKVAEVKKNGRISLVLGGDHSLAIGSISGHARVHPDLGVIWVDAHTDINTPLTTTSGNLHGQPVSFLLKELKGKIPDVPGFSWVTPCISAKDIVYIGLRDVDPGEHYILKTLGIKYFSMTEVDRLGIGKVMEETLSYLLGRKKRPIHLSFDVDGLDPSFTPATGTPVVGGLTYREGLYITEEIYKTGLLSGLDIMEVNPSLGKTPEEVTRTVNTAVAITLACFGLAREGNHKPIDYLNPPK
modifications: cobalt cofactor
[5]; pH 7.4, 25° C.
  improvement of Km value vs HAI Mn^2+: about 10 fold
[5]
  Km: 190 µM

B4: BCA mutant V20P Mn^2+ (protein, UniProt P53608 1-299, looked up, variant V20P)
Arginase: MKPISIIGVPMDLGQTRRGPDMGPSAMRYAGVIERLERLHYDIEDLGDIPIGKAERLHEQGDSRLRNLKAVAEANEKLAAAVDQVVQRGRFPLVLGGDHSIAIGTLAGVAKHYERLGVIWYDAHGDVNTAETSPSGNIHGMPLAASLGFGHPALTQIGGYSPKIKPEHVVLIGVRSLDEGEKKFIREKGIKIYTMHEVDRLGMTRVMEETIAYLKERTDGVHLSLDLDGLDPSDAPGVGTPVIGGLTYRESHLAMEMLAEAQIITSAEFVEVNPILDERNKTASVAVALMGSLFGEKLM
modifications: Mn2+
[6]
  Km: ~1290 µM

B5: BCA mutant V20P Co^2+ (protein, UniProt P53608 1-299, looked up, variant V20P)
Arginase: MKPISIIGVPMDLGQTRRGPDMGPSAMRYAGVIERLERLHYDIEDLGDIPIGKAERLHEQGDSRLRNLKAVAEANEKLAAAVDQVVQRGRFPLVLGGDHSIAIGTLAGVAKHYERLGVIWYDAHGDVNTAETSPSGNIHGMPLAASLGFGHPALTQIGGYSPKIKPEHVVLIGVRSLDEGEKKFIREKGIKIYTMHEVDRLGMTRVMEETIAYLKERTDGVHLSLDLDGLDPSDAPGVGTPVIGGLTYRESHLAMEMLAEAQIITSAEFVEVNPILDERNKTASVAVALMGSLFGEKLM
modifications: Co2+
[6]
  Km: ~180 µM

B6: BCAWTMn^2+: wild-type Bacillus caldovelox arginase with Mn^2+ (protein, UniProt P53608 1-299, looked up)
Arginase: MKPISIIGVPMDLGQTRRGVDMGPSAMRYAGVIERLERLHYDIEDLGDIPIGKAERLHEQGDSRLRNLKAVAEANEKLAAAVDQVVQRGRFPLVLGGDHSIAIGTLAGVAKHYERLGVIWYDAHGDVNTAETSPSGNIHGMPLAASLGFGHPALTQIGGYSPKIKPEHVVLIGVRSLDEGEKKFIREKGIKIYTMHEVDRLGMTRVMEETIAYLKERTDGVHLSLDLDGLDPSDAPGVGTPVIGGLTYRESHLAMEMLAEAQIITSAEFVEVNPILDERNKTASVAVALMGSLFGEKLM
modifications: Mn2+
[6]
  Km: ~3200 µM

B7: HAI: non-pegylated 6xHis-tagged recombinant human arginase I (protein, UniProt P05089 1-322, looked up)
Arginase-1: MSAKSRTIGIIGAPFSKGQPRGGVEEGPTVLRKAGLLEKLKEQECDVKDYGDLPFADIPNDSPFQIVKNPRSVGKASEQLAGKVAEVKKNGRISLVLGGDHSLAIGSISGHARVHPDLGVIWVDAHTDINTPLTTTSGNLHGQPVSFLLKELKGKIPDVPGFSWVTPCISAKDIVYIGLRDVDPGEHYILKTLGIKYFSMTEVDRLGIGKVMEETLSYLLGRKKRPIHLSFDVDGLDPSFTPATGTPVVGGLTYREGLYITEEIYKTGLLSGLDIMEVNPSLGKTPEEVTRTVNTAVAITLACFGLAREGNHKPIDYLNPPK
modifications: 6xHis tag
notes: non-pegylated 6xHis-tagged recombinant human arginase I
[3]
  effect on tumour growth (tumour volume) vs PBS control: did not show any significant effect
  average body weight: 25.5 ± 0.2 g
[7]
  IC50: 0.273 U/mL
[8]
  IC50: 0.058 U/mL
